# Assay results from publication doi:10.1101/2025.04.14.648677 (bioRxiv, 2025).
# T1: AGR2 H117Y (not stated (human or mouse AGR2 made)), O95994
# T1 chain: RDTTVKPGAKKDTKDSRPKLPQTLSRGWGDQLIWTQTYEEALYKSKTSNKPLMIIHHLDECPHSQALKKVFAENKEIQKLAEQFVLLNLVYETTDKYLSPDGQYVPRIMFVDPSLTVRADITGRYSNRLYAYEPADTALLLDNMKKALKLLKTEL
# Legend:
# [1] = molecular target: IRE1β_LD, wildtype (analytical SEC) (not stated (human numbering used; mouse IRE1β_LD used in cells)); test: SEC
# [2] = molecular target: T1, AGR2 H117Y (not stated (human or mouse …)); test: SEC; conditions: remark: other sources report otherwise
# [3] = molecular target: the molecule itself; test: SEC-SAXS
# [4] = molecular target: the molecule itself; test: AUC
molecule,measurement,setting,value
"IRE1β_LD, wildtype (analytical SEC) (domain or fragment)",stoichiometry N,[1],2
"AGR2 H117Y, O95994 21-175 (natural protein) RDTTVKPGAKKDTKDSRPKLPQTLSRGWGDQLIWTQTYEEALYKSKTSNKPLMIIHHLDECPHSQALKKVFAENKEIQKLAEQFVLLNLVYETTDKYLSPDGQYVPRIMFVDPSLTVRADITGRYSNRLYAYEPADTALLLDNMKKALKLLKTEL",stoichiometry N,[2],2
"Human AGR2^41-171 (domain or fragment, UniProt O95994 41-171, looked up) PQTLSRGWGDQLIWTQTYEEALYKSKTSNKPLMIIHHLDECPHSQALKKVFAENKEIQKLAEQFVLLNLVYETTDKHLSPDGQYVPRIMFVDPSLTVRADITGRYSNRLYAYEPADTALLLDNMKKALKLL",stoichiometry N,[3],2
"mouse AGR2 (residues 21-175), AUC (natural protein, UniProt O88312 21-175, looked up) KDTTVKSGAKKDPKDSRPKLPQTLSRGWGDQLIWTQTYEEALYRSKTSNRPLMVIHHLDECPHSQALKKVFAEHKEIQKLAEQFVLLNLVYETTDKHLSPDGQYVPRIVFVDPSLTVRADITGRYSNRLYAYEPSDTALLYDNMKKALKLLKTEL",binding result,[4],binds
